Series [1] deals with the molecule itself. Nature of the series: thioflavin T fluorescence.
Series [2] concerns the molecule itself. Nature of the series: solution NMR, decay of monomer signals over time.

B1: human RIPK1 RHIM-harboring domain (residues 496-583), wild type (domain or fragment, UniProt Q13546 496-583, looked up)
chain: HMPSLHNIPVPETNYLGNTPTMPFSSLPPTDESIKYTIYNSTGIQIGAYNYMEIGGTSSSLLDSTNTNFKEEPAAKYQAIFDNTTSLT
As for B1, the binding result in series [1] is recorded as “binds”.

B2: human RIPK1 RHIM-harboring domain (residues 496-583), N545D variant (domain or fragment, UniProt Q13546 496-583, looked up)
chain: HMPSLHNIPVPETNYLGNTPTMPFSSLPPTDESIKYTIYNSTGIQIGAYDYMEIGGTSSSLLDSTNTNFKEEPAAKYQAIFDNTTSLT
Consider B2, for which the binding result in series [2] is given as “binds”.

(Values after PMC12575786 (Nature communications, 2025).)
